Measurements as given in patent publication US8916693B2, “Monoconjugated chitosans as delivery agents for small interfering nucleic acids” (Nektar Therapeutics, priority 2009, dated 2014).

Assay: PBS buffer hydrolysis of releasable monoPEGylated chitosan (HPLC, disappearance of starting material)
Type: physicochemical
Conditions: 25 mM PBS, pH 7.3; 2 mg in 1 mL
Method: PBS buffer hydrolysis of releasable monoPEGylated (20 KDa) chitosan (10 KDa): To a solution of 25 mM PBS, pH 7.3, (1 mL) was added the monoPEGylated (20 KDa) chitosan (10 KDa) (2 mg). The solution was filtered through a 0.2 μm filter and analyzed for the disappearance of the PEGylated chitosan starting material on an HPLC system with a flow rate of 0.5 mL/min, gradient (A: 0.1M TEAA, B: 80% ACN and 20% 0.1M TEAA) 15% B 0-4 min, 50% B 8 min, and 58.2% B. The column used was a Zorbax 300SB-C3 3.0×150 mm, […], column.

Releasable monoPEGylated (20 KDa) Chitosan (10 KDa)
calculated half-life (hydrolysis, disappearance of the PEGylated chitosan): 7.04 h
